Substitutions are numbered along the chain they refer to. Values belong to the binder of their own block, whether it stands above or below them. No end group written: not given here. fluorescein = fluorescein label on the N-terminus, attached through a 6-aminohexanoyl (Ahx) spacer; Ahx = NCCCCCC(=O)O
T1: rhophilin 2-PDZ K576A/K579A (human, UniProt Q8IUC4 515-593, K576A | K579A)
T1 sequence (looked up): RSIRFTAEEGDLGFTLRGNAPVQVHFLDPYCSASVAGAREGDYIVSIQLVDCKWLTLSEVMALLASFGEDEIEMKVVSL

T2: rhophilin 2-PDZ K576E/K579E (human, UniProt Q8IUC4 515-593, K576E | K579E)
T2 sequence (looked up): T1 sequence (looked up) with A62E, A65E

B1: rhophilin 2-PDZ (PDZ domain of rhophilin-2), wild type (domain or fragment, human, UniProt Q8IUC4 515-593, looked up)
chain: T1 sequence (looked up) with A62K, A65K
B2: F-Ahx-EYLGLDVPV (N-fluorescein-labeled ErbB2 C-terminal peptide) (peptide)
peptide: {fluorescein-Ahx}-EYLGLDVPV

Tests used:
[1] = target: tamalin-PDZ (PDZ domain of tamalin), wild type (mouse, UniProt Q9JJA9 100-186); assay: fluorescence polarisation
[2] = target: other peptides (tested with rhophilin 2-PDZ, Table S4); assay: fluorescence polarisation
[3] = target: B2; assay: fluorescence polarisation
[4] = target: T1, rhophilin 2-PDZ K576A/K579A; assay: pull-down
[5] = target: B1; assay: pull-down
[6] = target: T2, rhophilin 2-PDZ K576E/K579E; assay: pull-down
[7] = target: B1; assay: fluorescence polarisation

tamalin-PDZ (PDZ domain of tamalin), wild type, sequence (Q9JJA9 100-186): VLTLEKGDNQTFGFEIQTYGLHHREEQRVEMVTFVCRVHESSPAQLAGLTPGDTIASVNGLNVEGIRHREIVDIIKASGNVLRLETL

binding result [1]: binds
Binder: {fluorescein-Ahx}-IRDYTQSSSSL [F-Ahx-IRDYTQSSSSL (N-terminal-fluorescein-labeled mGluR5 C-terminal peptide)]

Binder: B1
fold decrease in affinity with PM vesicles against without [2]: < 1.8 fold | fold increase in affinity with PM vesicles against without [3]: 2 fold

binding result [4]: binds | binding result [5]: binds | binding result [6]: binds
Binder: {GST}-EYLGLDVPV [GST-EYLGLDVPV (GST fusion of the C-terminal peptide of ErbB2)]

Binder: B2
binding result [7]: binds

— PMC3431187 (Molecular cell, 2012)
